Where two headings read alike, the source gives them in different places.
T1: 小鼠CD38胞外区 (mCD38) with C-terminal His tag, mCD38-his (mouse (mus musculus), UniProt P56528 45-304)
T1 construct: Recombinant, made in HEK293 cells; coated on the ELISA plate; not shown: His tag added at the C-terminus
T1 sequence: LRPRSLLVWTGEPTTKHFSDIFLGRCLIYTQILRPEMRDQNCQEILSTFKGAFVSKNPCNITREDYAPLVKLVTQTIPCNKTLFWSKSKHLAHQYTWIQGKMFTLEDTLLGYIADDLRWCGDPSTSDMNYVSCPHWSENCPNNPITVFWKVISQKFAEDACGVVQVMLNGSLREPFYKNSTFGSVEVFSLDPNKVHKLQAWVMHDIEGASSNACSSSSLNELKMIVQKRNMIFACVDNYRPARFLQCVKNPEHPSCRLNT


Columns and labels:
[1] = target: T1, 小鼠CD38胞外区 (mCD38) with C-terminal His …; assay: ELISA, mCD38-his coated at 1.5 μg/ml, HRP anti-human IgG detection
[2] = target: T2, 食蟹猴CD38胞外区 (mfCD38) with C-terminal His tag, mfCD38-his (cynomolgus monkey (Macaca fascicularis), UniProt Q5VAN0 44-301); assay: SPR (Biacore), antibody captured by anti-human Fc on CM5, mfCD38 as analyte
T2 construct: not shown: His tag added at the C-terminus

[3] = target: T3, 人CD38胞外区 (hCD38) with C-terminal His tag, hCD38-his (human (homo sapiens), UniProt P28907 43-300); assay: SPR (Biacore), antibody captured by anti-human Fc on CM5, hCD38 as analyte, 25 °C
T3 construct: Recombinant, made in HEK293 cells; not shown: His tag added at the C-terminus

[4] = target: T3, 人CD38胞外区 (hCD38) with C-terminal His …; assay: as above; remark: listed apart in the source

T2 sequence (Q5VAN0 44-301): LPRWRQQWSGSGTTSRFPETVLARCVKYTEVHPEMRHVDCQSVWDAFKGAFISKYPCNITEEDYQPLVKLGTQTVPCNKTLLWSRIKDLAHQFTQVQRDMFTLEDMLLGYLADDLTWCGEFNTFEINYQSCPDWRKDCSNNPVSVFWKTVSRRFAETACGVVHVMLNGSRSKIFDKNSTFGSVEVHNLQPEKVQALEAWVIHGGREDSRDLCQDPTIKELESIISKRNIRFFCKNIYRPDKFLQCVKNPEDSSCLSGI

Binder	binding result [1]	Kd [2] [nM]	Kd [3] [nM]	Kd [4] [nM]
S5B8 (mouse-human chimeric antibody, human IgG1) (antibody, V domains shown, Tested as a recombinant human IgG1-kappa/lambda mouse-human chimeric antibody; also called 鼠单抗S5B8) VH: QVQLQQSGSVLVRPGVSVKLSCKASGYAFTNSWMHWAKQRPGQGLEWIGEIHPQSGRTNYNEKFKGKATLTVDTSSSTAYVDFSSLTSEDSAVYYCARDLLQFGNQYYYAMDYWGQGTSVTVSS VL: DVVMTQTPLSLPVSLGDQASISCRSSQSLVHSNGNTYLHWYLQKPGQSPKLLIYKVSNRFSGVPDRFSGSGSGTDFTLKISRVEAEDLGVYFCSQSTHVPLTFGAGTKLEMK	no binding	3.14	0.178	–
S5B8VH-h1+S5B8VK-h1 (antibody, human IgG1, V domains shown, Humanized, expressed as a human IgG1 whole antibody; also called S5B8人源化分子) VH: QVQLVQSGAEVKKPGASVKVSCKASGYAFTNSWMHWVRQAPGQRLEWMGEIHPQSGRTNYNEKFKGRVTITRDTSASTAYMELSSLRSEDTAVYYCARDLLQFGNQYYYAMDYWGQGTLVTVSS VL: DVVMTQSPLSLPVTLGQPASISCRSSQSLVHSNGNTYLHWFQQRPGQSPRRLIYKVSNRFSGVPDRFSGSGSGTDFTLKISRVEAEDVGVYYCSQSTHVPLTFGQGTKLEIK	–	13.6	0.371	–
S5B8VH-h1+S5B8VK-h2 (antibody, human IgG1, V domains shown, Humanized, expressed as a human IgG1 whole antibody; also called S5B8人源化分子) VH: QVQLVQSGAEVKKPGASVKVSCKASGYAFTNSWMHWVRQAPGQRLEWMGEIHPQSGRTNYNEKFKGRVTITRDTSASTAYMELSSLRSEDTAVYYCARDLLQFGNQYYYAMDYWGQGTLVTVSS VL: DIVMTQTPLSLPVTPGEPASISCRSSQSLVHSNGNTYLHWYLQKPGQSPQLLIYKVSNRFSGVPDRFSGSGSGTDFTLKISRVEAEDVGVYYCSQSTHVPLTFGQGTKLEIK	–	5.15	0.0894	–
S5B8VH-h2+S5B8VK-h1 (antibody, human IgG1, V domains shown, Humanized, expressed as a human IgG1 whole antibody; also called S5B8人源化分子) VH: QVQLVQSGAEVKKPGASVKVSCKASGYAFTNSWMHWVRQAPGQGLEWMGEIHPQSGRTNYNEKFKGRVTMTRDTSTSTVYMELSSLRSEDTAVYYCARDLLQFGNQYYYAMDYWGQGTLVTVSS VL: DVVMTQSPLSLPVTLGQPASISCRSSQSLVHSNGNTYLHWFQQRPGQSPRRLIYKVSNRFSGVPDRFSGSGSGTDFTLKISRVEAEDVGVYYCSQSTHVPLTFGQGTKLEIK	–	9.66	0.406	–
S5B8VH-h2+S5B8VK-h2 (antibody, human IgG1, V domains shown, Humanized, expressed as a human IgG1 whole antibody; also called S5B8人源化分子) VH: QVQLVQSGAEVKKPGASVKVSCKASGYAFTNSWMHWVRQAPGQGLEWMGEIHPQSGRTNYNEKFKGRVTMTRDTSTSTVYMELSSLRSEDTAVYYCARDLLQFGNQYYYAMDYWGQGTLVTVSS VL: DIVMTQTPLSLPVTPGEPASISCRSSQSLVHSNGNTYLHWYLQKPGQSPQLLIYKVSNRFSGVPDRFSGSGSGTDFTLKISRVEAEDVGVYYCSQSTHVPLTFGQGTKLEIK	–	3.48	0.0486	–
S5A10-h1 (antibody, human IgG1, V domains shown, Humanized, expressed as a human IgG1 whole antibody; also called S5A10VH-h1+S5A10VK-h1; S5A10人源化分子) VH: QVQLVQSGAEVKKPGSSVKVSCKASDYPFISYTIHWVRQAPGQGLEWMGYINPSNGYTNYNQKFKDRVTITADKSTSTAYMELSSLRSEDTAVYYCARKYGNFYAMDYWGQGTLVTVSS VL: DIQMTQSPSSLSASVGDRVTITCRASENIYSYLAWYQQKPGKAPKLLIYNAKTLAEGVPSRFSGSGSGTDFTLTISSLQPEDFATYYCQHHYGTPYTFGQGTKLEIK	–	–	–	2.73
S5B7 (mouse-human chimeric antibody, human IgG1) (antibody, Tested as a human IgG1-kappa/lambda chimeric antibody built from the variable domains of this scFv) scFv: QVQLQQPGSVLVRPGASVKLSCKATGYTFSSYWIEWVKQRPGHGLEWIGDILPGTGTTNYNEKFKGKATFTADTSSNTAYMQFSSLTSEDSAVYYCASSYGNYVWGQGTSLTVSSGGGGSGGGGSGGGGSDVVMTQSPASLAVSLGQRATISCKASQSVDYDGDSYMNWYQQKPGQPPRLLIYAASNLESGIPARFSGSGSGTDFTLNIHPVEEEDAATYYCQQGNGAPRTFGGGTKLEIK	no binding	–	–	–
S5B5 (mouse-human chimeric antibody, human IgG1) (antibody, Tested as a human IgG1-kappa/lambda chimeric antibody built from the variable domains of this scFv) scFv: QVKLQQFGAELVKPGASVKISCKATGYTFSSYWIGWVKQRPGHGLEWIGEILPGTGSTNYNEKFKDKATFTADTSPNTAYMQLSSLTSEDSAVYYCARWDGNYGDYALDYWGQGTSVTVSAGGGGSGGGGSGGGGSDIVMTQSPSSMYASLGERVTITCKASQDINSYLSWFQQKPGKSPKTLIYRANRLVDGVPSRFSGSGSGQDYSLTISSLEYEDMGIYYCLQYDEFPYTFGGGTKLEIK	no binding	–	–	–
S5B4 (mouse-human chimeric antibody, human IgG1) (antibody, Tested as a human IgG1-kappa/lambda chimeric antibody built from the variable domains of this scFv) scFv: QVKLQQSGAELMKPGASVKISCKATGYTFSSYWIGWLKQRPGHGLEWVGELLPGSGSTNYNEKFKGKATFTADTSSNTAYMQLSSLTSEDSAVYYCARWDGNYGDYTLDYWGQGTSVTVSSGGGGSGGGGSGGGGSDIVMTQSPSSMYASLGERVTITCKASQDINSYLSWFQQKPGKSPKTLIYRANRLVDGVPSRFSGSGSGQDYSLTISSLEYEDMGIYYCLQYDEFPYTFGGGTKLEMK	no binding	–	–	–
S5D3 (mouse-human chimeric antibody, human IgG1) (antibody, Tested as a human IgG1-kappa/lambda chimeric antibody built from the variable domains of this scFv) scFv: QVQLQQSGAELMKPGASVKISCKATGYTSSSYWIEWVKQRPGHGLEWIGEILPGSGSTNYNEKFKGKATFTADTSSNTAYMQLSSLTSEDSAVYYCARLYDNSYFDYWGQGTSLTVSSGGGGSGGGGSGGGGSDIVMTQSPSSMYASLGERVTITCKASQDINSYLSWFQQKPGKSPKTLIYRANRLVDGVPSRFSGSGSGQDYSLTISSLEYEDMGIYYCLQYDEFPYTFGGGTKLEMK	no binding	–	–	–
S5E3 (mouse-human chimeric antibody, human IgG1) (antibody, Tested as a human IgG1-kappa/lambda chimeric antibody built from the variable domains of this scFv) scFv: QVQLQQSGPEVVKPGASVKMSCKATGYTSRSYWIEWVKQRPGHGLEWIGEILPGSGSTNYNEKFKGKATFTADTSSNTAYMQLSSLTSEDSAVYYCARWDGNYGDFVLDYWGQGTSVTVSSGGGGSGGGGSGGGGSDIQMTQSPSSMYASLGERVTITCKASQDINSYLSWFQQKPGKSPKTLIYRANRLVDGVPSRFSGSGSGQDYFLTISSLEYEDMGIYYCLQYDEFPYTFGGGTKLEMK	no binding	–	–	–

— patent publication CN108752475A (BEIJING WISDOMAB BIOTECHNOLOGY CO LTD, dated 2018)
